In article doi:10.64898/2025.12.12.693948:

Assays:
[1] = molecular target: FLAG-tagged AnkG UPA-DD domains without the E35a-encoded peptide (mouse); assay: co-IP; N2a cells 48 h after transfection with FLAG-UPA-DD minigene plasmids with or without E35a; Pierce IP lysis buffer; anti-FLAG M2 antibody on Protein G magnetic beads; immunoblot with anti-IP3R1
[2] = molecular target: ankyrin-G (AnkG) lacking the E35a-encoded peptide, endogenous, Ank3 E35a-/- mouse cerebellum (mouse (endogenous in cerebellum)) (UniProt G5E8K5); assay: co-IP; mouse cerebellum whole tissue lysate (500 μg total protein; WT or Ank3 E35a-/-); anti-AnkG antibody (Santa Cruz sc-12719) on Protein G magnetic beads, overnight at 4°C; washed with NT2 buffer; immunoblot with anti-IP3R1 or anti-Na-K ATPase; normalised to the AnkG 190 kDa isoform

Sequence of FLAG-tagged AnkG UPA-DD domains without the E35a-encoded peptide (mouse) (G5E8K5 whole entry, the tested form may be a part, canonical isoform): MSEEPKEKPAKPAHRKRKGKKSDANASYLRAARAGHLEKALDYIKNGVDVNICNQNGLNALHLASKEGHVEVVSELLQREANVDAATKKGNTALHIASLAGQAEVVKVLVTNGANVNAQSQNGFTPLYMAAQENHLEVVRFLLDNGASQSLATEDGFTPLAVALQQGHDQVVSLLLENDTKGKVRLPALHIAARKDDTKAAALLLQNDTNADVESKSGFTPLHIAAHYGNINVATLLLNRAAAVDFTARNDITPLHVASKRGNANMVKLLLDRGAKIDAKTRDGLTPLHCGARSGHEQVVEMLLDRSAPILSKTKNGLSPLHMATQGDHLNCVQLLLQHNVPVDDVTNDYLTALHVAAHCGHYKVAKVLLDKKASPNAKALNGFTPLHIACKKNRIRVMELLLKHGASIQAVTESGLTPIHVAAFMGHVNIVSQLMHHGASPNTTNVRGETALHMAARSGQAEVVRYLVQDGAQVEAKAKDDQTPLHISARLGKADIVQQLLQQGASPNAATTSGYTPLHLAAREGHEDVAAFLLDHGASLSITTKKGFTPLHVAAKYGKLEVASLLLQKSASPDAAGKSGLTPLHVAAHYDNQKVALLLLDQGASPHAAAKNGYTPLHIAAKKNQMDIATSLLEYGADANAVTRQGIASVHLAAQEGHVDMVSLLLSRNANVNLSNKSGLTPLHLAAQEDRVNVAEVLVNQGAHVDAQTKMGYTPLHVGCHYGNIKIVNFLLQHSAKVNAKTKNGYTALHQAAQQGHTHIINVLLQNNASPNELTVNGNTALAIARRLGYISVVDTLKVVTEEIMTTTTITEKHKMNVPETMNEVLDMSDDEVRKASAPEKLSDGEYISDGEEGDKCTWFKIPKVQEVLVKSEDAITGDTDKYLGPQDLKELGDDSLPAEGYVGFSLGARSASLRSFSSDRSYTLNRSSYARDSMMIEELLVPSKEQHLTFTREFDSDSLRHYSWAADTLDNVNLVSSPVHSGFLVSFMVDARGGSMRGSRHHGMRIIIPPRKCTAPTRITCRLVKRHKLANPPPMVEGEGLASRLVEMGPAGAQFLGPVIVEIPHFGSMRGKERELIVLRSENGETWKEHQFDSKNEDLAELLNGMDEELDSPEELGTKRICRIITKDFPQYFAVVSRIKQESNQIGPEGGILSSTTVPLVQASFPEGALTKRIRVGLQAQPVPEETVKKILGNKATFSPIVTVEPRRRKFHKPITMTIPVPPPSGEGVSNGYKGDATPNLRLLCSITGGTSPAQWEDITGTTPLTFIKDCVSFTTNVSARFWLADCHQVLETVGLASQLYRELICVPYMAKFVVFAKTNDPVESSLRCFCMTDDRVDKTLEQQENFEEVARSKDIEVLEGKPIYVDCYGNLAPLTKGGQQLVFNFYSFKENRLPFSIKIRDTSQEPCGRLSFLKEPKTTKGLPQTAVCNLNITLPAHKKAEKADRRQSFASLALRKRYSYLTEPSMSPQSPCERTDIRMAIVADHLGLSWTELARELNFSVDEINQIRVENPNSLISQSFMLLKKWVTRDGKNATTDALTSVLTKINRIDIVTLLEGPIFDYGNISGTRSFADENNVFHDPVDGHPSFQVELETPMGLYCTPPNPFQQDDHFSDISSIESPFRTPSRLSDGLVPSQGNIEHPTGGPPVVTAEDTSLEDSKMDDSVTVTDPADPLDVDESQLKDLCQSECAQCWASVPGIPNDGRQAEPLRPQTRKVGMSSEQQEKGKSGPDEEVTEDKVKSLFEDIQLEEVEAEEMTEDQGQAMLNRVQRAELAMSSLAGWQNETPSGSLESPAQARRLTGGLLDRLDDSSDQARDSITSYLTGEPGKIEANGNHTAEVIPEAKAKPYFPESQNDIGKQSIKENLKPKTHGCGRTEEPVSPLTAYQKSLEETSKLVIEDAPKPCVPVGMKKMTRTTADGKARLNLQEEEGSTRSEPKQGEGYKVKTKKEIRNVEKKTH

| Substance | percent of InsP3R1 pulled down relative to UPA-DD with E35a [1] [%] | percent reduction of co-precipitated InsP3R1 against WT [2] [%] |
| --- | --- | --- |
| type 1 inositol trisphosphate receptor (InsP3R1), endogenous, N2a cells (from UniProt P11881 1-2749) (natural protein) | 30 | – |
| type 1 inositol trisphosphate receptor (InsP3R1), endogenous, mouse cerebellum (from UniProt P11881 1-2749) (natural protein) | – | 77 |
